Experimental data published in patent publication US20260097113A1 (Pfizer, published 2026).

T1: RSV F protein of subtype A comprising a polypeptide of SEQ ID NO: 1 and a polypeptide of SEQ ID NO: 2 (RSV subtype A, UniProt P11209 137-513; P03420 26-109)
T1 construct: Stabilized prefusion F trimer made of three F2-F1 heterodimers; Produced recombinantly in CHO cells; also called RSV A; RSVA
T1 chain 1: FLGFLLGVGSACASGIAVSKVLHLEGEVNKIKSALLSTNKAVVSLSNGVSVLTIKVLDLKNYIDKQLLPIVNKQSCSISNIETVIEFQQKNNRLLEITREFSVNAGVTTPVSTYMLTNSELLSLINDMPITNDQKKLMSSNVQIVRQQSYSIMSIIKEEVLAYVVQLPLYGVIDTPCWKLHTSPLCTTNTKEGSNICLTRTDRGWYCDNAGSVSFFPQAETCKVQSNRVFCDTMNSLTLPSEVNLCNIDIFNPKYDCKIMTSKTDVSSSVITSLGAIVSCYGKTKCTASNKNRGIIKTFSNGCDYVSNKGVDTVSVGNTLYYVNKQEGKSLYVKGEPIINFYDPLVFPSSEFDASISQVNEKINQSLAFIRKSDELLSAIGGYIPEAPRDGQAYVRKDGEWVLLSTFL
T1 chain 2: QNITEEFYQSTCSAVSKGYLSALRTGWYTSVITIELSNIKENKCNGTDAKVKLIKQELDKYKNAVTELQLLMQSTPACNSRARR

B1: AM14 (trimeric prefusion specific antibody of the AM14 ELISA) (antibody, V domains shown)
VH: EVQLVESGGGVVQPGRSLRLSCAASGFSFSHYAMHWVRQAPGKGLEWVAVISYDGENTYYADSVKGRFSISRDNSKNTVSLQMNSLRPEDTALYYCARDRIVDDYYYYGMDVWGQGATVTVSS
VL: DIQMTQSPSSLSASVGDRVTITCQASQDIKKYLNWYHQKPGKVPELLMHDASNLETGVPSRFSGRGSGTDFTLTISSLQPEDIGTYYCQQYDNLPPLTFGGGTKVEIKR
notes: Antibody as used in the AM14 ELISA, detected with an HRP-labeled secondary antibody

What was measured:
[1] = molecular target: RSV A + RSV B bivalent composition (RSV subtype A; RSV subtype B); assay: AM14 Fab titration by SEC; High-Slow 2 cycle; T0
[2] = molecular target: RSV A + RSV B bivalent composition (RSV subtype A; RSV subtype B); assay: AM14 Fab titration by SEC; High-Slow 1 cycle; 3 M 25°C
[3] = molecular target: RSV A + RSV B bivalent composition (RSV subtype A; RSV subtype B); assay: AM14 Fab titration by SEC; High-Slow 1 cycle; 1 M 40°C
[4] = molecular target: RSV A + RSV B bivalent composition (RSV subtype A; RSV subtype B); assay: AM14 Fab titration by SEC; High-Slow 1 cycle; 3 M 40°C
[5] = molecular target: RSV A + RSV B bivalent composition (RSV subtype A; RSV subtype B); assay: AM14 Fab titration by SEC; High-Slow 2 cycle; 8 M 2-8°C
[6] = molecular target: T1, RSV F protein of subtype A comprising a …; assay: AM14 ELISA; F2 (pH 8, 0 mM NaCl, 0% sucrose); 2 wk 5°C
[7] = molecular target: T1, RSV F protein of subtype A comprising a …; assay: AM14 ELISA; F6 (pH 7, 0 mM NaCl, 4.5% sucrose); T0
[8] = molecular target: T1, RSV F protein of subtype A comprising a …; assay: AM14 ELISA; F15 (pH 6, 0 mM NaCl, 9% sucrose); 1 wk 25°C
[9] = molecular target: T1, RSV F protein of subtype A comprising a …; assay: AM14 ELISA; F3 (pH 8, 0 mM NaCl, 9% sucrose); 2 wk 5°C
[10] = molecular target: T1, RSV F protein of subtype A comprising a …; assay: AM14 ELISA; F13 (pH 7, 100 mM NaCl, 4.5% sucrose); 2 wk 25°C
[11] = molecular target: T1, RSV F protein of subtype A comprising a …; assay: AM14 ELISA; F14 (pH 7, 50 mM NaCl, 4.5% sucrose); 2 wk 5°C
[12] = molecular target: T1, RSV F protein of subtype A comprising a …; assay: AM14 ELISA; F1 (pH 8, 100 mM NaCl, 0% sucrose); T0
[13] = molecular target: T1, RSV F protein of subtype A comprising a …; assay: AM14 ELISA; F5 (pH 6, 100 mM NaCl, 9.0% sucrose); 2 wk 5°C
[14] = molecular target: T1, RSV F protein of subtype A comprising a …; assay: AM14 ELISA; F4 (pH 6, 50 mM NaCl, 4.5% sucrose); 1 wk 5°C
[15] = molecular target: T1, RSV F protein of subtype A comprising a …; assay: AM14 ELISA; F14 (pH 7, 50 mM NaCl, 4.5% sucrose); 1 wk 25°C
[16] = molecular target: T1, RSV F protein of subtype A comprising a …; assay: AM14 ELISA; F16 (pH 6, 0 mM NaCl, 0% sucrose); 1 wk 25°C
[17] = molecular target: T1, RSV F protein of subtype A comprising a …; assay: AM14 ELISA; F8 (pH 7, 50 mM NaCl, 0% sucrose); 2 wk 25°C

Molecule	Prefusion Content (%) [1] [%]	Prefusion Content (%) [2] [%]	Prefusion Content (%) [3] [%]	Prefusion Content (%) [4] [%]	Prefusion Content (%) [5] [%]	AM14 prefusion content (%), relative to standard [6] [%]	AM14 prefusion content (%), relative to standard [7] [%]	AM14 prefusion content (%), relative to standard [8] [%]	AM14 prefusion content (%), relative to standard [9] [%]	AM14 prefusion content (%), relative to standard [10] [%]	AM14 prefusion content (%), relative to standard [11] [%]	AM14 prefusion content (%), relative to standard [12] [%]	AM14 prefusion content (%), relative to standard [13] [%]	AM14 prefusion content (%), relative to standard [14] [%]	AM14 prefusion content (%), relative to standard [15] [%]	AM14 prefusion content (%), relative to standard [16] [%]	AM14 prefusion content (%), relative to standard [17] [%]
AM14 Fab	61	53	51	52	72												
B1						75	99	99	70	37	78	120	76	76	77	87	85
